Assay results reported in patent US20180044681A1.

Biological target: EpCAM (Epithelial Cell Adhesion Molecule) (UniProt P16422)
Assay: binding to EpCAM-expressing cells; method not stated

Chain of EpCAM (Epithelial Cell Adhesion Molecule) (P16422 24-314 limits assumed): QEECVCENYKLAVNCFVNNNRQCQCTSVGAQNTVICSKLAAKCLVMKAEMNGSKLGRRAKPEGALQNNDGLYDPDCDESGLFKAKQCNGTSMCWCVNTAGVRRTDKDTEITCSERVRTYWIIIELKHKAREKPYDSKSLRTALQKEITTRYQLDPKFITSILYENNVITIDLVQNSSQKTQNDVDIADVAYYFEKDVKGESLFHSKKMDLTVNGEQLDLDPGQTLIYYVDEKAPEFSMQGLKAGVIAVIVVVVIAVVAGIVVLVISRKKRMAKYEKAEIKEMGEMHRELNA

Substance: HEA125 antibody
- Kd: 2.2 nM
